This test has as its target protrusion protein of OmRV-LZ (N-terminal part of P3, cleaved from the ORF1-encoded precursor) (Omono River virus strain LZ (OmRV-LZ)). Description: cryo-EM structure; sub-particle refinement of the protrusion extracted from the virus particles, capsid signal subtracted; first C1, then C5 symmetry; 4.10 Å.

For orientation: stoichiometry N means a count of units in the complex or per binding partner. The substance “protrusion protein of OmRV-LZ (N-terminal part of P3, cleaved from the ORF1-encoded precursor) (natural protein)” returned a stoichiometry N of 5.

Source of the values: publication PMC7968656.
